Changes are numbered by the printed parent chain.
What was measured:
[1] = target: T1, Pfu Cas3 HD L139A/HEL V418A (Pyrococcus furiosus, UniProt Q8U336 1-237, limits assumed); assay: Strep-tag pull-down, SDS-PAGE
T1 construct: tags as for m8
T1 sequence 1: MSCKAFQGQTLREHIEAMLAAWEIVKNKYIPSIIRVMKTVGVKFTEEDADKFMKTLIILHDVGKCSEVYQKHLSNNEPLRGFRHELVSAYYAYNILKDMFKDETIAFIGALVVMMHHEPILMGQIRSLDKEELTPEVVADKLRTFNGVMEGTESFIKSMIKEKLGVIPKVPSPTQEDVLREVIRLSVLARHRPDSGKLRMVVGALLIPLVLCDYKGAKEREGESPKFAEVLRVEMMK
T1 sequence 2: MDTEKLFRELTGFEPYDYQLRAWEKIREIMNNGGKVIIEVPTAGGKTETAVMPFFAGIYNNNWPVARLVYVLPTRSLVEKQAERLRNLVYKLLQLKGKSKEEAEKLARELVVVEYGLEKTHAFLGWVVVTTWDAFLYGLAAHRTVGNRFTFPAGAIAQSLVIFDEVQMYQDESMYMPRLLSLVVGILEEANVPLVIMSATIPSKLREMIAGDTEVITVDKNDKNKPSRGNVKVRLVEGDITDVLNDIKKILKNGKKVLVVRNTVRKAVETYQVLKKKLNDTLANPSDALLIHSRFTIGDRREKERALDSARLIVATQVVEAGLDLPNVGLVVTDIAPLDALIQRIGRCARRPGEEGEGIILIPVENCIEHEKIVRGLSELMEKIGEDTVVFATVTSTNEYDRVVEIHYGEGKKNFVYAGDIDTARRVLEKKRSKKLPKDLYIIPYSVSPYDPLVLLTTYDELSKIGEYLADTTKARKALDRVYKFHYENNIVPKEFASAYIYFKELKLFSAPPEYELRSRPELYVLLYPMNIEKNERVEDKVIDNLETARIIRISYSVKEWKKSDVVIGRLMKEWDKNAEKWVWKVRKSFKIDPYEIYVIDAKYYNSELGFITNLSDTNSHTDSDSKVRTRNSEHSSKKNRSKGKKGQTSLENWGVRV
From the text: (§1) Binding of Pfu Cas3 effectively eliminates the severe domain movements in Cas8a NTD, and rigidifies the rest of the inner belly subunits in place (FIG. 3A-B). The lockdown effect is achieved through an extensive Cas3-Cas8a interface that spans across the NTD and CTD of Cas8a, which prevents the hinge motion in between the two domains. […] To validate structural observations, we mutagenized three conserved interface residues on Cas3 individually and in combination, two from the HD nuclease (V187E, L139A) and one from the helicase subunit (V418A). In Strep-tag pull-down experiments, each mutation reduced the affinity between Cas3 and Cascade, albeit to various extents. In particular, Cas3 HD V187E and HD L139A/HEL V418A completely disrupted Cas3 interaction with Cascade (FIG. 19). Thus, in embodiments, any Cas3 sequence that is at least 85% similar to a Pfu Cas3 may retain the described wild type amino acids.
(§2) 15 μg of strep-tagged Pfu Cascade and 15 μg of untagged Pfu Cas3 complex were mixed and incubated with 10 μL of strep resin at 4° C. for 30 min in a binding buffer (50 mM HEPES pH7.5, 10% glycerol, 300 mM NaCl), in a total assay volume of 50 μL. […]

Pfu Cas3 HD V187E = target: T2, Pfu Cas3 HD V187E (Pyrococcus furiosus, UniProt Q8U336 1-237, limits assumed); assay: Strep-tag pull-down, SDS-PAGE
T2 construct: The pull-down method speaks of an 'untagged Pfu Cas3 complex'; also called Cas3 V187E
T2 sequence 1: T1 sequence 1 with A139L, V187E
T2 sequence 2: T1 sequence 2 with A418V
From the text: as §1, §2

binding result [1]: no binding
binding result (Pfu Cas3 HD V187E): no binding
B1: Pfu Cascade (other)
chain 1: not shown
chain 2: MDILLVCLRFPFFSVAKRSYQVRTSFLLPPPSALKGALAKGLILLKPEKYASSSLDEAALKAIKEIESKLVDIKAVSVAPLSPLIRNAFLLKRLRNLESGSNAEKSDAMRREYTFTRELLVAYIFKNLTQEEKNLYLKAAMLIDVIGDTESLATPVWASFVKPEDKKAPLAFSAPYTEIYSLLSSKIQAKGKIRMYIEKMRVSPEYSKTKGPQEEIFYLPIEERRYKRIVYYARTIYPPEVEKALTVDGEVLGIWIPKNSSESGSHHHHHHH
chain 3: MMYVRISGRIRLNAHSLNAQGGGGTNYIEITKTKVTVRTENGWTVVEVPAITGNMLKHWHFVGFVDYFKTTPYGVNLTERALRYNGTRFGQGETTATKANGATVQLNDEATIIKELADADVHGFLAPKTGRRRVSLVKASFILPTEDFIKEVEGERLITAIKHNRVDVDEKGAIGSSKEGTAQMLFSREYATGLYGFSIVLDLGLVGIPQGLPVKFEENQPRPNIVIDPNERKARIESALKALIPMLSGYIGANLARSFPVFKVEELVAIASEGPIPALVHGFYEDYIEANRSIIKNARALGFNIEVFTYNVDLGEDIEATKVSSVEELVANLVKMVGGKE
chain 4: MGGWIRNIGRYLSYLVDDTFEEYAYDVVDGIAKARTQEELLEGVYKALRLAPKLKKKAESKGCPPPRIPSPEDIEALEEKVEQLSNPKDLRKLAVSLALWAFASWNNCPKKGKGTEGGVE
notes: Ribonucleoprotein complex that also holds the chimeric crRNA (Pfu 5'-handle, E. coli 3'-handle); also called I-A Pfu Cascade; apo Pfu Cascade

Reference: patent US20240376454A1 (CORNELL UNIVERSITY, published 2024)
